# Data from patent US20130310265A1, “METHODS OF PREPARING CYCLIC PEPTIDES AND USES THEREOF” (NORTH CAROLINA STATE UNIVERSITY, priority 2012, published 2013).
# Bridges are numbered along the chain shown (N, C = ends). Where no end group is shown, it is not given here. [ ]: non-standard residue; d: D form. Lac = C[C@H](O)C(=O)O
# Assays:
# [1] = biological target: T1, Neutravidin (Gallus gallus, UniProt P02701); assay: Chromatographic comparison of cyclic depsipeptide and cyclic peptide resins on column; conditions: Toyopearl resin column, binding PBS pH 7.4, elution 0.2M Glycine pH 2.5, absorbance 280 nm
# Protocol: Thirty-five milligrams of cyclo[Lac-A-DRASPY-E]-Toyopearl resin and cyclo[A-A-DRASPY-E]-Toyopearl (SEQ ID NO:21, 29) resin were packed in a 30 mm×2.1 mm I.D. Microbore column (0.1 mL) and swollen with 20% v/v methanol. One hundred microliters of feed sample, namely Neutravidin 5 mg/mL in PBS pH 7.4, was loaded onto the column at a flow rate of 0.05 mL/min (87 cm/h). The column was washed with 2 mL of equilibration buffer at a flow rate of 0.2 mL/min (348 cm/h). Elution was then performed with 4 mL of 0.2M glycine buffer pH 2.5 at the flow rate of 0.4 mL/min (696 cm/h). Cleaning and regeneration were performed by 4 mL of 0.85% phosphoric acid. The effluent was monitored by absorbance at 280 nm. Fractions were collected and concentrated five times by centrifugation at 4° C., 20817×g for 30 min using an Amicon® Ultra centrifugal filter (3000 MWCO, Ultracel®, Millipore, Billerica, Mass., USA).
# Cyclic depsipeptides are present in nature as very selective ligands and enzyme substrates. In many cases, however, the depside (ester) bond is found to play an active role in their biological activity and the homodetic cyclic peptide version of the same sequence can partially or completely loose the target affinity. […]
# [2] = biological target: T1, Neutravidin; assay: Screening simulation by the Mondorf-Carbonell radiological procedure with 14C-radiolabeled Neutravidin; format: binding; conditions: 10 mg of 50:50 mix of ligand resin and negative control resin, PBS, 5% 14C-radiolabeled Neutravidin, washed with PBS 0.2M NaCl 0.1% Tween 20, film five days
# From the text: A solid phase library of reversible cyclic peptides synthesized as explained in sections 5.2 and 5.3 can be screened for on-bead ligands that bind to a target biological. […] The selected beads are then subjected to the alkaline treatment reported in section 5.7. See Mondorf and Carbonell 1998.
# Neutravidin was radiolabeled according to the procedure reported by Mondorf et al. using ^14C formaldehyde by reductive amination. The prospected extent of radiolabeling was 5%. Mondorf Carbonell 1998.
# Two aliquots of cyclo[Lac-A-DRASPY-E]-HMBA-ChemMatrix resin and cyclo[Lac-A-VVWVV-E]-HMBA-ChemMatrix (SEQ ID NO:20-21) resin and were mixed in a 50:50 proportion. 10 mg of the resin mix was swollen in 20% methanol in water for 30 min and then rinsed with PBS, pH 7.4 (3×5 min). The resin slur was then mixed with 200 μl of 5 mg/mL ^14C-labelled Neutravidin. After 2 hrs of incubation the supernatant was decanted and the resin was washed with PBS buffer containing 0.2M NaCl and 0.1% (w/v) Tween 20 until the radioactivity reached the baseline level. […]
# (§1) The screening procedure followed the method set forth in sections 5.5 and 6.5. […] A volume of 250 mL of washing solution was necessary in order for the radioactivity to reach the baseline level. […] In both cases, the difference between the levels of radioactivity carried by the resin was enough to discriminate the ligand resin beads from the negative control beads.
# [3] = biological target: T2, Neutravidin (UniProt P02701 25-152); assay: radiological on-bead screening (autoradiography of beads in agarose)
# T2 construct: In the bead screening it was radiolabelled with 14C formaldehyde by reductive amination (prospected extent 5%); In the column runs it was unlabelled, 5 mg/mL in PBS pH 7.4; also called 14C-labelled Neutravidin; target protein
# Protocol: Two aliquots of cyclo[Lac-A-DRASPY-E]-HMBA-ChemMatrix resin and cyclo[Lac-A-VVWVV-E]-HMBA-ChemMatrix (SEQ ID NO:20-21) resin and were mixed in a 50:50 proportion. 10 mg of the resin mix was swollen in 20% methanol in water for 30 min and then rinsed with PBS, pH 7.4 (3×5 min). The resin slur was then mixed with 200 μl of 5 mg/mL ¹⁴C-labelled Neutravidin. After 2 hrs of incubation the supernatant was decanted and the resin was washed with PBS buffer containing 0.2M NaCl and 0.1% (w/v) Tween 20 until the radioactivity reached the baseline level. The washed resin was then mixed with 20 mL of 1% low melting agarose solution. The mixture was swirled to form a uniform suspension and then the slurry was poured on 16×18 cm gelbond film to form a monolayer of beads. This gel was air-dried overnight in a hood. The dried agarose gel was then exposed to photographic film for 5 days at room temperature. The photographic film was then developed, the dark spot located on the film and the corresponding beads selected.
# as §1
# T1 sequence (P02701 25-152): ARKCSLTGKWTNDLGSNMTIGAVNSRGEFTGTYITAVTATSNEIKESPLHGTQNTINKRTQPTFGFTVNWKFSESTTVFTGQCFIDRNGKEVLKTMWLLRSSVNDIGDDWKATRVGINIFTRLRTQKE
# T2 sequence (P02701 25-152): as above
Molecule,"binding chromatogram, cyclic depsipeptide vs cyclic peptide version of the same ligand sequence (FIG. 35) [1]",amount of radiolabeled target protein bound by resin beads (dark spot on developed radiographic film) [2],further results
"cyclo[A-A-DRASPY-E] (AADRASPYE-{Toyopearl AF‑Amino‑650M resin}; lactam N-9; not fully specified; printed as cyclo[A-A-DRASPY-E]) [cyclo[A-A-DRASPY-E]-Toyopearl, homodetic cyclic peptide analogue of DRASPY depsipeptide on Toyopearl resin]",no difference,,
cyclo[Lac-A-DRASPY-E] [cyclo[Lac-A-DRASPY-E]-HMBA-ChemMatrix],,bound a sufficient amount of radiolabeled target protein to impress a dark spot,
cyclo[Lac-A-DRASPY-E] [cyclo[Lac-A-DRASPY-E]-Toyopearl],no difference,,
"cyclo[Lac-A-VVWVV-E] ([Lac]AVVWVVE; bridge N-8; not fully specified (C-terminus, bridges); printed as cyclo[Lac-A-VVWVV-E]) [cyclo[Lac-A-VVWVV-E]-HMBA-ChemMatrix]",,bound a sufficient amount of radiolabeled target protein to impress a dark spot,
"[Lac]AVVWVVE (bridge N-8; not fully specified (C-terminus, bridges); printed as cyclo[Lac-A-VVWVV-E], also called cyclo[Lac-A-VVWVV-E]-HMBA-ChemMatrix; negative control resin) [cyclo[Lac-A-VVWVV-E]]",,,binding result [3]: no binding
